Assay results published in US20150284467A1 (MAX DELBR CK CENTRUM F R MOLEKULARE MEDIZIN, published 2015).

Tests used:
[1] = biological target: T1, extracellular domain of human CD269 (BCMA, TNFRSF17), purified (human, UniProt Q02223 4-54); test: SPR, value printed beside the trace for 10.0 nM BCMA; neither quantity nor unit is printed on the sheet: the five printed values average 5.40E-11, which is the mean Kd of 54 pM in paragraph 181
T1 construct: also called BCMA extracellular domain
T1 sequence: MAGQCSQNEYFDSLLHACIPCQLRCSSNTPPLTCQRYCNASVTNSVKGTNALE

[2] = biological target: T1, extracellular domain of human CD269 …; test: SPR, value printed beside the trace for 1.1 nM BCMA; neither quantity nor unit is printed on the sheet: the five printed values average 5.40E-11, which is the mean Kd of 54 pM in paragraph 181
[3] = biological target: T1, extracellular domain of human CD269 …; test: surface plasmon resonance with several concentrations of BCMA (FIG. 1c)
[4] = biological target: T1, extracellular domain of human CD269 …; test: SPR, value printed beside the trace for 30.0 nM BCMA; neither quantity nor unit is printed on the sheet: the five printed values average 5.40E-11, which is the mean Kd of 54 pM in paragraph 181
[5] = biological target: T1, extracellular domain of human CD269 …; test: SPR, value printed beside the trace for 3.3 nM BCMA; neither quantity nor unit is printed on the sheet: the five printed values average 5.40E-11, which is the mean Kd of 54 pM in paragraph 181
[6] = biological target: T1, extracellular domain of human CD269 …; test: SPR, value printed beside the trace for 90.0 nM BCMA; neither quantity nor unit is printed on the sheet: the five printed values average 5.40E-11, which is the mean Kd of 54 pM in paragraph 181

Kd [1]: 55.5 pM
Kd [2]: 21 pM
Kd [3]: 54 pM
Kd [4]: 69.5 pM
Kd [5]: 36.2 pM
Kd [6]: 88 pM
B1: J22.9-xi chimeric antibody (mouse VH/VL of hybridoma J22.9 on human IgG1 and kappa constant domains) (antibody, V domains shown)
VH: QVQLQQSGGGLVQPGGSLKLSCAASGIDFSRYWMSWVRRAPGKGLEWIGEINPDSSTINYAPSLKDKFIISRDNAKNTLYLQMSKVRSEDTALYYCASLYYDYGDAMDYWGQGTSVTVSS
VL: DIVMTQSQRFMTTSVGDRVSVTCKASQSVDSNVAWYQQKPRQSPKALIFSASLRFSGVPARFTGSGSGTDFTLTISNLQSEDLAEYFCQQYNNYPLTFGAGTKLELKR
modifications: N-linked oligosaccharide chain at Asn297
notes: Full length IgG made in 293-6E cells; the constant domains are marked 'Used in J22.9-xi'
